B1: LCOR (parent)
chain: PCAGSTSLSHSPGCSSTQGNGRPG

Variants of: B1
Assay: protein stability index of a GFP-peptide fusion (GPS, HEK-293T) (PSI 1-6); higher = more stable
Details: c terminus: a fixed tail appended
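Further: lentivirally expressed fusions sorted by FACS into six bins by GFP to DsRed ratio, PSI derived from sequencing read proportions per bin multiplied by bin number.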

Variant | protein stability index
PCAGSTSLSHSPCCSSTQGNGRPG [G13C] | 1.44
PCAGSTSLSHSPKCSSTQGNGRPG [G13K] | 3.39
PCAGSTSLSHSPNCSSTQGNGRPG [G13N] | 3.61
PCAGSTSLSHSPYCSSTQGNGRPG [G13Y] | 2.53
PCAGSTSLSHSPDCSSTQGNGRPG [G13D] | 3.23
PCAGSTSLSHSPFCSSTQGNGRPG [G13F] | 2.93
PCAGSTSLSHSPSCSSTQGNGRPG [G13S] | 3.46
PCAGSTSLSHSPGCSSTQGDGRPG [N20D] | 3.44
PCAGSTSLSHSPGCSSTQGIGRPG [N20I] | 2.19
PCAGSTSLSHSPGCSSTQGPGRPG [N20P] | 2.51
PCAGSTSLSHSPGCSSTQGVGRPG [N20V] | 3.58
PCAGSTSLSHSPGCSSTQGSGRPG [N20S] | 3.1
PCAGSTSLSHSPGCSSTQGFGRPG [N20F] | 2.66
PCAGSTSLSHSPGCSSTQGAGRPG [N20A] | 4.09
PCAGSTSLSHSPGCSSTQGHGRPG [N20H] | 2.79
PCAGSTSLSHSPGCSSTQGEGRPG [N20E] | 2.88
PCAGSTSLSHSPGCSSTQGTGRPG [N20T] | 2.35
PCAGSTSLSHSPGCSSTQGRGRPG [N20R] | 3.07
PCAGSTSLSHSPGCSSTQGMGRPG [N20M] | 2.83
PCAGSTSLSHSPGCSSTQGLGRPG [N20L] | 2.91
PCAGSTSLSHSPGCSSTQGNGPPG [R22P] | 3.83
PCAGSTSLSHSPGCSSTQGNGHPG [R22H] | 3.96
PCAGSTSLSHSPGCSSTQGNGIPG [R22I] | 3.97
PCAGSTSLSHSPGCSSTQGNGCPG [R22C] | 3.92

Variant | protein stability index
PCAGSTSLSHSPGCSSTQGNGWPG [R22W] | 2.55
PCAGSTSLSHSPGCSSTQGNGKPG [R22K] | 4.23
PCAGSTSLSHSPGCSSTQGNGFPG [R22F] | 3.37
PCAGSTSLSHSPGCSSTQGNGGPG [R22G] | 3.06
PCAGSTSLSHSPGCSSTQGNGLPG [R22L] | 2.47
PCAGSTSLSHSPGCSSTQGNGYPG [R22Y] | 4.14
PCAGSTSLSHSPGCSSTQGNGEPG [R22E] | 4.55
PCAGSTSLSHSPGCSSTQGNGSPG [R22S] | 5.07
PCAGSTSLSHSPGCSSTQGNGNPG [R22N] | 4.2
PCAGSTSLSHSPGCSSTQGNGAPG [R22A] | 4.1
PCAGSTSLSHSPGCSSTQGNGQPG [R22Q] | 3.98
PCAGSTSLSHSPGCSSTQGNGTPG [R22T] | 3.46
PCAGSTSLSHSPGCSSTQGNGMPG [R22M] | 3.78
PCAGSTSLSHSPGCSSTQGNGDPG [R22D] | 4.3
PCAGSTSLSHSPGCSSTQGNARPG [G21A] | 3.63
PCAGSTSLSHSPGCSSTQGNSRPG [G21S] | 2.81
PCAGSTSLSHSPGCSSTQGNERPG [G21E] | 3.96
PCAGSTSLSHSPGCSSTQGNFRPG [G21F] | 1.98
PCAGSTSLSHSPGCSSTQGNDRPG [G21D] | 3.95
PCAGSTSLSHSPGCSSTQGNKRPG [G21K] | 3.79
PCAGSTSLSHSPGCSSTQGNPRPG [G21P] | 2.53
PCAGSTSLSHSPGCSSTQGNIRPG [G21I] | 3.54
PCAGSTSLSHSPGCSSTQGNYRPG [G21Y] | 2.92
PCAGSTSLSHSPGCSSTQGNNRPG [G21N] | 3.57

Variant | protein stability index
PCAGSTSLSHSPGCSSTQGNQRPG [G21Q] | 3.36
PCAGSTSLSHSPGCSSTQGNHRPG [G21H] | 2.31
PCAGSTSLSHSPGCSSTQGNTRPG [G21T] | 2.1
PCAGSTSLSHSPGCSSTQGNCRPG [G21C] | 2.85
PCAGSTSLSHSPGCSSTQGNRRPG [G21R] | 3.29
PCAGSTSLSHSPGCSSTQGNWRPG [G21W] | 2.34
PCAGSTSLSHSPGCLSTQGNGRPG [S15L] | 3.36
PCAGSTSLSHSPGCISTQGNGRPG [S15I] | 2.8
PCAGSTSLSHSPGCHSTQGNGRPG [S15H] | 2.4
PCAGSTSLSHSPGCQSTQGNGRPG [S15Q] | 2.79
PCAGSTSLSHSPGCFSTQGNGRPG [S15F] | 2.83
PCAGSTSLSHSPGCWSTQGNGRPG [S15W] | 2.85
PCAGSTSLSHSPGCGSTQGNGRPG [S15G] | 2.49
PCAGSTSLSHSPGCASTQGNGRPG [S15A] | 2.91
PCAGSTSLSHSPGCDSTQGNGRPG [S15D] | 4.31
PCAGSTSLSHSPGCYSTQGNGRPG [S15Y] | 2.92
PCAGSTSLSHSPGCKSTQGNGRPG [S15K] | 2.39
PCAGSTSLSHSPGCVSTQGNGRPG [S15V] | 3.3
PCAGSTSLSHSPGCMSTQGNGRPG [S15M] | 2.95
PCAGSTSLSHSPGCESTQGNGRPG [S15E] | 3.55
PCAGSTSLSHSPGCSSTQYNGRPG [G19Y] | 2.5
PCAGSTSLSHSPGCSSTQCNGRPG [G19C] | 2.56
PCAGSTSLSHSPGCSSTQWNGRPG [G19W] | 1.91
PCAGSTSLSHSPGCSSTQKNGRPG [G19K] | 3.48

Variant | protein stability index
PCAGSTSLSHSPGCSSTQFNGRPG [G19F] | 3.15
PCAGSTSLSHSPGCSSTQNNGRPG [G19N] | 2.94
PCAGSTSLSHSPGCSSTQMNGRPG [G19M] | 2.88
PCAGSTSLSHSPGCSSTQSNGRPG [G19S] | 3.84
PCAGSTSLSHSPGCSSTQTNGRPG [G19T] | 3.24
PCAGSTSLSHSPGCSSTQLNGRPG [G19L] | 2.91
PCAGSTSLSHSPGCSSTQRNGRPG [G19R] | 2.32
PCAGSTSLSHSPGCSSTQHNGRPG [G19H] | 2.32
PCAGSTSLSHSPGCSSTQINGRPG [G19I] | 2.9
PCAGSTSLSHSPGCSSTQANGRPG [G19A] | 3.65
PCAGSTSLSHSPGCSSTQQNGRPG [G19Q] | 3.64
PCAGSTSLSHSPGCSSTQVNGRPG [G19V] | 3.19
PCAGSTSLSHSPGCSSTQENGRPG [G19E] | 3.8
PCAGSTSLSHSPGCSSTQDNGRPG [G19D] | 3.91
PCAGSTSLSHSPGCSSTQPNGRPG [G19P] | 3.31
PCAGSTSLSHSPGCSSTQGNGRPE [G24E] | 2.65
PCAGSTSLSHSPGCSSTQGNGRPH [G24H] | 3.81
PCAGSTSLSHSPGCSSTQGNGRPF [G24F] | 2.95
PCAGSTSLSHSPGCSSTQGNGRPA [G24A] | 3.38
PCAGSTSLSHSPGCSSTQGNGRPI [G24I] | 3.09
PCAGSTSLSHSPGCSSTQGNGRPD [G24D] | 3.72
PCAGSTSLSHSPGCSSTQGNGRPC [G24C] | 2.48

Reference: the supplement of paper PMC10567573
